For ten molecules, interaction score results are on record in article PMC10397247.

What all share (assay): two-hybrid library CCmax;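 note: natural log of median RNA to DNA barcode read ratio; higher means stronger binding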
In test [1] the target is T1, 4H807-AA.
T1 chain: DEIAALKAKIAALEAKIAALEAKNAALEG
The note with it: mean of both orientations.

For test [2], the target named is T2, APC232-AA.
T2 chain: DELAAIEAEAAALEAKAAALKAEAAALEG
The conditions noted are these: mean of both orientations.

Test [3] deals with T3, APC5383-AA.
T3 chain: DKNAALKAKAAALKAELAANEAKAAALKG
The note with it: mean of both orientations.

Test [4] has as its target T4, 4H1405-AA.
T4 chain: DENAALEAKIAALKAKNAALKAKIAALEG
The conditions noted are these: mean of both orientations.

Test [5] deals with T5, 4H2238-AA.
T5 chain: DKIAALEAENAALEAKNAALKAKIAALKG
The note with it: mean of both orientations.

Test [6] has as its target T6, 4H2536-AA.
T6 chain: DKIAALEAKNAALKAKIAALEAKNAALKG
The note with it: mean of both orientations.

Test [7] addresses T7, 4H278-AA.
T7 chain: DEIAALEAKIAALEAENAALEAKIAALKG
The conditions noted are these: mean of both orientations.

The target of test [8] is T8, 4H3409-AA.
T8 chain: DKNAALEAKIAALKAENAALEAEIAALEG
The conditions noted are these: mean of both orientations.

Test [9] deals with T9, 4H390-AA.
T9 chain: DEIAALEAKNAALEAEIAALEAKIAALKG
The conditions noted are these: mean of both orientations.

In test [10] the target is T10, 4H3922-AA.
T10 chain: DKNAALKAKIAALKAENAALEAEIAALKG
The conditions noted are these: mean of both orientations.

Test [11] has as its target T11, 4H3940-AA.
T11 chain: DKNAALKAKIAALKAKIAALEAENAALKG
The conditions noted are these: mean of both orientations.

For test [12], the target named is T12, 4H481-AA.
T12 chain: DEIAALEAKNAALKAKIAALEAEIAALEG
The note with it: mean of both orientations.

In test [13] the target is T13, 4H775-AA.
T13 chain: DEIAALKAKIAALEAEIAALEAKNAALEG
The note with it: mean of both orientations.

The target in test [14] is T14, 4H189-AA.
T14 chain: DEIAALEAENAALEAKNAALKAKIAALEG
The conditions noted are these: mean of both orientations.

Test [15] has as its target T15, 4H2283-AA.
T15 chain: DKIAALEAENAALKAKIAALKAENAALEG
The note with it: mean of both orientations.

The target in test [16] is T16, 4H2948-AA.
T16 chain: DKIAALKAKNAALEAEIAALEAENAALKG
The conditions noted are these: mean of both orientations.

In test [17] the target is T17, 4H3066-AA.
T17 chain: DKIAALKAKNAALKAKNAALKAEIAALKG
The conditions noted are these: mean of both orientations.

Test [18] has as its target T18, 4H3591-AA.
T18 chain: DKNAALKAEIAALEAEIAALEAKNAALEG
The conditions noted are these: mean of both orientations.

Test [19] addresses T19, 4H428-AA.
T19 chain: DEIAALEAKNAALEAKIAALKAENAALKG
The conditions noted are these: mean of both orientations.

For test [20], the target named is T20, 4H971-AA.
T20 chain: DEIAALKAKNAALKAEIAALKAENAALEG
The conditions noted are these: mean of both orientations.

Test [21] has as its target T21, 4H2898-AA.
T21 chain: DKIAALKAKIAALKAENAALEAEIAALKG
The conditions noted are these: mean of both orientations.

For test [22], the target named is T22, 4H3020-AA.
T22 chain: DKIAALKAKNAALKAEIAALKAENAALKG
The conditions noted are these: mean of both orientations.

Test [23] has as its target T23, 4H465-AA.
T23 chain: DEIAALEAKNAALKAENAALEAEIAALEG
The conditions noted are these: mean of both orientations.

The target in test [24] is T24, 4H535-AA.
T24 chain: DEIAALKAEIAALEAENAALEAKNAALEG
The conditions noted are these: mean of both orientations.

In test [25] the target is T25, P5-AA-12HGe-A.
T25 chain: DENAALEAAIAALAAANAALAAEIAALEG
The conditions noted are these: mean of both orientations.

Test [26] deals with T26, P5-AA-12HGe-D.
T26 chain: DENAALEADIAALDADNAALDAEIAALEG
The conditions noted are these: mean of both orientations.

Test [27] has as its target T27, P5-AA-12HGe-E.
T27 chain: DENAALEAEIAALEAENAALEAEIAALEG
The note with it: mean of both orientations.

Test [28] has as its target T28, P5-AA-12HGe-T.
T28 chain: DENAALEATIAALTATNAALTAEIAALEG
The conditions noted are these: mean of both orientations.

Test [29] addresses T29, P5-AA-1HAA-K.
T29 chain: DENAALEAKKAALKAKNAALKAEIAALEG
The note with it: mean of both orientations.

Test [30] has as its target T30, P5-AA-1HAA-S.
T30 chain: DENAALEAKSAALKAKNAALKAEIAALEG
The conditions noted are these: mean of both orientations.

In test [31] the target is T31, P5-AA-1HAA-Y.
T31 chain: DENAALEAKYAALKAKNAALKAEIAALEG
The note with it: mean of both orientations.

The target in test [32] is T32, P5-AA-1HGe-H.
T32 chain: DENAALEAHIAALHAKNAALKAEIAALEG
The conditions noted are these: mean of both orientations.

The target in test [33] is T33, P5-AA-1HGe-W.
T33 chain: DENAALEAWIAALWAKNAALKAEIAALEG
The conditions noted are these: mean of both orientations.

Test [34] deals with T34, 4H122-AA.
T34 chain: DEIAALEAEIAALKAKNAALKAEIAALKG
The conditions noted are these: mean of both orientations.

The target of test [35] is T35, 4H2604-AA.
T35 chain: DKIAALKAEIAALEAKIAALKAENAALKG
The conditions noted are these: mean of both orientations.

The target of test [36] is T36, O1-AA.
T36 chain: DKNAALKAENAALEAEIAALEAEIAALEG
The conditions noted are these: mean of both orientations.

The target of test [37] is T37, P6-AA-12HGe-T.
T37 chain: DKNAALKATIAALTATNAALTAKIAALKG
The conditions noted are these: mean of both orientations.

For test [38], the target named is T38, P6-AA-1HAA-E.
T38 chain: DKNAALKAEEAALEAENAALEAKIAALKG
The conditions noted are these: mean of both orientations.

Test [39] deals with T39, P6-AA-1HAA-H.
T39 chain: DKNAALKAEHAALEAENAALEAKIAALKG
The note with it: mean of both orientations.

Test [40] deals with T40, P6-AA-1HAA-T.
T40 chain: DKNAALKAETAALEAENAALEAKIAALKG
The conditions noted are these: mean of both orientations.

The target of test [41] is T41, P6-AA-1HGe-M.
T41 chain: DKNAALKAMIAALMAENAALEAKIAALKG

Test [42] addresses T42, 4H1639-AA.
T42 chain: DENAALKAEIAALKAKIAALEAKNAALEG
The conditions noted are these: mean of both orientations.

DENAALKAKIAALEAKNAALEAKIAALEG [4H1845-AA]: the values for the interaction score in test [1], in [2] and in [3] were -1.58, -2.09 and -1.57, respectively.
With DENAALEAKIAALKAEIAALEAKIAALKG [4H1350-AA], the interaction score in [4] was -0.893; in test [5], -1.14; in test [6] it was -0.188; in test [7], 0.443; in test [8] it was -1.11; in test [9], 0.523. Besides, the interaction score in [10] was -0.898; in [11], -0.283; in test [12], 0.532; in [13], 1.63.
For the molecule DENAALEAEIAALEAKIAALEAKNAALKG [4H1064-AA], the interaction score in test [14] is -1.4; in [15], -1.69; in test [16] it was -0.884; in [17] it was -1.4; in [18], 0.232; in test [19] it was -1.04. The interaction score in [20] was -1.08.
In the case of DENAALEAENAALKAKIAALKAEIAALEG [4H1257-AA], the interaction score in [21] is -1.42; in test [22] it was -1.1; in test [23] it was -0.726; in test [24] it was -1.14.
Regarding DKNAALKAEIAALEAENAALEAKIAALKG [4H3606-AA], the interaction score is 0.833 in test [25]; -1.24 in [26]; 0.858 in test [27]; 1.23 in [28]; 2.15 in [29]; 1.63 in test [30]. Besides, the interaction score in [31] is 2.23; in test [32], 2.15; in test [33] it was 2.27.
Turning to DENAALEAENAALEAEIAALEAEIAALEG [4H1153-AA], in test [34], the interaction score was -1.61.
Turning to DEIAALEAENAALKAKNAALKAEIAALEG [4H249-AA], the interaction score in test [35] is -1.73.
With DEIAALEAENAALEAKIAALKAENAALEG [4H171-AA], in test [36], the interaction score is -1.52.
Consider DENAALEAKIAALKAKNAALKAEIAALEG [4H1401-AA], for which the interaction score in [37] was determined as 0.16; in test [38], 2.01; in test [39], 2.06; in test [40], 1.96; in test [41], 2.24.
Turning to DENAALKAEIAALKAENAALKAEIAALKG [4H1626-AA], the interaction score in test [42] was -1.38.
